B1: human ZDHHC6 (WT), Myc-tagged [human] / human ZDHHC6 (WT), Myc-tagged [human] (parent)
chain 1: MGTFCSVIKFENLQELKRLCHWGPIIALGVIAICSTMAMIDSVLWYWPLHTTGGSVNFIMLINWTVMILYNYFNAMFVGPGFVPLGWKPEISQDTMYLQYCKVCQAYKAPRSHHCRKCNRCVMKMDHHCPWINNCCGYQNHASFTLFLLLAPLGCIHAAFIFVMTMYTQLYHRLSFGWNTVKIDMSAARRDPLPIVPFGLAAFATTLFALGLALGTTIAVGMLFFIQMKIILRNKTSIESWIEEKAKDRIQYYQLDEVFVFPYDMGSRWRNFKQVFTWSGVPEGDGLEWPVREGCHQYSLTIEQLKQKADKRVRSVRYKVIEDYSGACCPLNKGIKTFFTSPCTEEPRIQLQKGEFILATRGLRYWLYGDKILDDSFIEGVSRIRGWFPRKCVEKCPCDAETDQAPEGEKKNR
chain 2: B1 chain 1

In the assay the parent is B1. Briefly: co-immunoprecipitation (IP with myc antibodies, anti-GFP immunoblot, densitometry). Particulars: HeLa cells transfected for 24 hr, n = 4, parent: 100, read off a plot.
Regarding chain 1 C328A C329A C343A, the percent of parent was 39 % of WT.

These data come from PMC5582869.
